From the supplement of paper PMC11780869

Tested on: Bacillus subtilis
Test: cleaved RNA product abundance (RNA/gDNA barcode ratio) relative to median wild-type variant (ratio to wild type); higher = more accumulation of the downstream cleavage product
Details: cleavage site: cggR-gapA (positions -7 to +36 mutated)
Outline: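 Truncated aprE or tetM reporter mRNAs with barcoded RNase Y cleavage-site windows, mutagenized from oligos at a 9% error rate, sat in the B. subtilis chromosome. Cells grew in LB at 37°C from OD600 0.0003 to 0.3. Gel-selected cleaved RNA was reverse transcribed and its barcodes sequenced with those from genomic DNA, collapsing by UMI. Cleaved product abundance equals the RNA:gDNA barcode ratio per construct over the median construct with the unmutated site.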

[1] = experiment (reporter, strain, medium): exp 2b: truncated aprE reporter, strain BJT200
[2] = experiment (reporter, strain, medium): exp 4a: truncated aprE reporter, strain BJT201 with 2% xylose (RNase J1 expressed)

Row | Sequence | cleaved RNA product abundance [1] | cleaved RNA product abundance [2] | cleaved RNA product abundance (experiment (reporter, strain, medium): exp 6: tetM reporter, strain 168)
1 | ACAGACGAAGGAGCCGCAAAGAAGTTATTAAGGAATGAATAATCCCTCAATATAAATAGCTCTCACTTATTTAAA | 0.108 | 0.095 | 
2 | ACAGACGAAGGAGCCGCAAAGAAGTTATTAAGGAATGAATAATCCCTCAATATAAATATCTCTCACTTATTTAAA | 0.109 | 0.132 | 0.126
3 | ACAGACGAAGGAGCCGCAAAGAAGTTATTAAGGAATGAATAATCCCTCAATATAAATATTTCTCACTTATTTAAA |  | 0.136 | 
4 | ACAGACGAAGGAGCCGCAAAGAAGTTATTAAGGAATGAATAATCCCTCAATATAAATTTCTCTCACTTATTTAAA | 0.114 | 0.142 | 
5 | ACAGACGAAGGAGCCGCAAAGAAGTTATTAAGGAATGAATAATCCCTCAATATAAGTATCTCTCACTTATTTAAA |  | 0.0312 | 
6 | ACAGACGAAGGAGCCGCAAAGAAGTTATTAAGGAATGAATAATCCCTCAATATAATTATCTCTCACTTATTTAAA |  | 0.117 | 
7 | ACAGACGAAGGAGCCGCAAAGAAGTTATTAAGGAATGAATAATCCCTCAATATACATATCTCTCACTTATTTAAA |  | 0.118 | 
8 | ACAGACGAAGGAGCCGCAAAGAAGTTATTAAGGAATGAATAATCCCTCAATATAGATATCTCTCACTTATTTAAA |  | 0.101 | 
9 | ACAGACGAAGGAGCCGCAAAGAAGTTATTAAGGAATGAATAATCCCTCAATATATATATCTCTCACTTATTTAAA | 0.0862 | 0.149 | 
10 | ACAGACGAAGGAGCCGCAAAGAAGTTATTAAGGAATGAATAATCCCTCAATATCAATATCTCTCACTTATTTAAA |  | 0.0389 | 
11 | ACAGACGAAGGAGCCGCAAAGAAGTTATTAAGGAATGAATAATCCCTCAATCTAAATATCTCTCACTTATTTAAA |  | 0.0695 | 
12 | ACAGACGAAGGAGCCGCAAAGAAGTTATTAAGGAATGAATAATCCCTCAATTTAAATATCTCTCACTTATTTAAA | 0.0901 | 0.0591 | 
13 | ACAGACGAAGGAGCCGCAAAGAAGTTATTAAGGAATGAATAATCCCTCACTATAAATATCTCTCACTTATTTAAA | 0.0964 |  | 
14 | ACAGACGAAGGAGCCGCAAAGAAGTTATTAAGGAATGAATAATCCCTCAGTATAAATATCTCTCACTTATTTAAA |  | 0.15 | 
15 | ACAGACGAAGGAGCCGCAAAGAAGTTATTAAGGAATGAATAATCCCTCATTATAAATATCTCTCACTTATTTAAA | 0.102 | 0.0579 | 
16 | ACAGACGAAGGAGCCGCAAAGAAGTTATTAAGGAATGAATAATCCCTCCATATAAATATCTCTCACTTATTTAAA |  | 0.0857 | 
17 | ACAGACGAAGGAGCCGCAAAGAAGTTATTAAGGAATGAATAATCCCTCTATATAAATATCTCTCACTTATTTAAA | 0.12 | 0.119 | 
18 | ACAGACGAAGGAGCCGCAAAGAAGTTATTAAGGAATGAATAATCCCTGAATATAAATATCTCTCACTTATTTAAA |  | 0.0984 | 
19 | ACAGACGAAGGAGCCGCAAAGAAGTTATTAAGGAATGAATAATCCCTTAATATAAATATCTCTCACTTATTTAAA | 0.68 | 0.588 | 

Row | Sequence | cleaved RNA product abundance [1] | cleaved RNA product abundance [2] | cleaved RNA product abundance (experiment (reporter, strain, medium): exp 6: tetM reporter, strain 168)
20 | ACAGACGAAGGAGCCGCAAAGAAGTTATTAAGGAATGAATAATCCGTCAATATAAATATCTCTCACTTATTTAAA | 0.0733 | 0.0653 | 
21 | ACAGACGAAGGAGCCGCAAAGAAGTTATTAAGGAATGAATAATCCTTCAATATAAATATCTCTCACTTATTTAAA | 0.148 | 0.265 | 
22 | ACAGACGAAGGAGCCGCAAAGAAGTTATTAAGGAATGAATAATCGCTCAATATAAATATCTCTCACTTATTTAAA |  | 0.0645 | 
23 | ACAGACGAAGGAGCCGCAAAGAAGTTATTAAGGAATGAATAATCTCTCAATATAAATATCTCTCACTTATTTAAA | 0.0991 | 0.155 | 
24 | ACAGACGAAGGAGCCGCAAAGAAGTTATTAAGGAATGAATAATGCCTCAATATAAATATCTCTCACTTATTTAAA |  | 0.0706 | 
25 | ACAGACGAAGGAGCCGCAAAGAAGTTATTAAGGAATGAATAATTCCTCAATATAAATATCTCTCACTTATTTAAA | 0.756 | 0.872 | 
26 | ACAGACGAAGGAGCCGCAAAGAAGTTATTAAGGAATGAATACTCCCTCAATATAAATATCTCTCACTTATTTAAA | 0.116 | 0.106 | 
27 | ACAGACGAAGGAGCCGCAAAGAAGTTATTAAGGAATGAATAGTCCCTCAATATAAATATCTCTCACTTATTTAAA | 0.101 | 0.114 | 
28 | ACAGACGAAGGAGCCGCAAAGAAGTTATTAAGGAATGAATATTCCCTCAATATAAATATCTCTCACTTATTTAAA | 0.178 | 0.279 | 
29 | ACAGACGAAGGAGCCGCAAAGAAGTTATTAAGGAATGAATCATCCCTCAATATAAATATCTCTCACTTATTTAAA |  | 0.151 | 
30 | ACAGACGAAGGAGCCGCAAAGAAGTTATTAAGGAATGAATGATCCCTCAATATAAATATCTCTCACTTATTTAAA |  | 0.0629 | 
31 | ACAGACGAAGGAGCCGCAAAGAAGTTATTAAGGAATGAATTATCCCTCAATATAAATATCTCTCACTTATTTAAA |  | 0.0807 | 
32 | ACAGACGAAGGAGCCGCAAAGAAGTTATTAAGGAATGACTAATCCCTCAATATAAATATCTCTCACTTATTTAAA |  | 0.103 | 
33 | ACAGACGAAGGAGCCGCAAAGAAGTTATTAAGGAATGAGTAATCCCTCAATATAAATATCTCTCACTTATTTAAA | 0.119 | 0.131 | 
34 | ACAGACGAAGGAGCCGCAAAGAAGTTATTAAGGAATGATTAATCCCTCAATATAAATATCTCTCACTTATTTAAA | 0.115 | 0.11 | 
35 | ACAGACGAAGGAGCCGCAAAGAAGTTATTAAGGAATGTATAATCCCTCAATATAAATATCTCTCACTTATTTAAA | 0.104 | 0.169 | 
36 | ACAGACGAAGGAGCCGCAAAGAAGTTATTAAGGAATTAATAATCCCTCAATATAAATATCTCTCACTTATTTAAA | 0.103 | 0.137 | 
37 | ACAGACGAAGGAGCCGCAAAGAAGTTATTAAGGAATTATTAATCCCTCAATATAAATATCTCTCACTTATTTAAA |  | 0.203 | 
38 | ACAGACGAAGGAGCCGCAAAGAAGTTATTAAGGACTGAATAATCCCTCAATATAAATATCTCTCACTTATTTAAA | 0.0791 | 0.0888 | 

Row | Sequence | cleaved RNA product abundance [1] | cleaved RNA product abundance [2] | cleaved RNA product abundance (experiment (reporter, strain, medium): exp 6: tetM reporter, strain 168)
39 | ACAGACGAAGGAGCCGCAAAGAAGTTATTAAGGAGTGAATAATCCCTCAATATAAATATCTCTCACTTATTTAAA |  | 0.171 | 
40 | ACAGACGAAGGAGCCGCAAAGAAGTTATTAAGGATGAATAATCCCTCAATATAAATATCTCTCACTTATTTAAAG |  | 0.294 | 
41 | ACAGACGAAGGAGCCGCAAAGAAGTTATTAAGGATTGAATAATCCCTCAATATAAATATCTCTCACTTATTTAAA | 0.217 | 0.301 | 
42 | ACAGACGAAGGAGCCGCAAAGAAGTTATTAAGGCAAGAATAATCCCTCAATATAAATATCTCTCACTTATTTAAA | 0.104 | 0.115 | 
43 | ACAGACGAAGGAGCCGCAAAGAAGTTATTAAGGCAGGAATAATCCCTCAATATAAATATCTCTCACTTATTTAAA | 0.102 | 0.167 | 
44 | ACAGACGAAGGAGCCGCAAAGAAGTTATTAAGGCATAAATAATCCCTCAATATAAATATCTCTCACTTATTTAAA | 0.0865 | 0.107 | 
45 | ACAGACGAAGGAGCCGCAAAGAAGTTATTAAGGCATGAAAAATCCCTCAATATAAATATCTCTCACTTATTTAAA | 0.0832 | 0.0945 | 
46 | ACAGACGAAGGAGCCGCAAAGAAGTTATTAAGGCATGAACAATCCCTCAATATAAATATCTCTCACTTATTTAAA |  | 0.0684 | 
47 | ACAGACGAAGGAGCCGCAAAGAAGTTATTAAGGCATGAATAAACCCTCAATATAAATATCTCTCACTTATTTAAA |  | 0.136 | 
48 | ACAGACGAAGGAGCCGCAAAGAAGTTATTAAGGCATGAATAATACCTCAATATAAATATCTCTCACTTATTTAAA | 0.0988 | 0.153 | 
49 | ACAGACGAAGGAGCCGCAAAGAAGTTATTAAGGCATGAATAATCACTCAATATAAATATCTCTCACTTATTTAAA | 0.118 | 0.0873 | 
50 | ACAGACGAAGGAGCCGCAAAGAAGTTATTAAGGCATGAATAATCCATCAATATAAATATCTCTCACTTATTTAAA | 0.102 | 0.114 | 
51 | ACAGACGAAGGAGCCGCAAAGAAGTTATTAAGGCATGAATAATCCCACAATATAAATATCTCTCACTTATTTAAA | 0.0968 | 0.0597 | 
52 | ACAGACGAAGGAGCCGCAAAGAAGTTATTAAGGCATGAATAATCCCCCAATATAAATATCTCTCACTTATTTAAA | 0.11 | 0.0993 | 
53 | ACAGACGAAGGAGCCGCAAAGAAGTTATTAAGGCATGAATAATCCCTAAATATAAATATCTCTCACTTATTTAAA | 0.114 | 0.151 | 
54 | ACAGACGAAGGAGCCGCAAAGAAGTTATTAAGGCATGAATAATCCCTCAAAATAAATATCTCTCACTTATTTAAA | 0.0982 | 0.141 | 
55 | ACAGACGAAGGAGCCGCAAAGAAGTTATTAAGGCATGAATAATCCCTCAACATAAATATCTCTCACTTATTTAAA | 0.119 | 0.112 | 
56 | ACAGACGAAGGAGCCGCAAAGAAGTTATTAAGGCATGAATAATCCCTCAAGATAAATATCTCTCACTTATTTAAA | 0.0843 | 0.142 | 
57 | ACAGACGAAGGAGCCGCAAAGAAGTTATTAAGGCATGAATAATCCCTCAATAAAAATATCTCTCACTTATTTAAA |  | 0.0606 | 
